# Results from patent US8247376B2, “NGAL for reduction and amelioration of ischemic and nephrotoxic injuries” (The Trustees of Columbia University, priority 2004, dated 2012).
# “Also recorded” adds a separate entry of the source. Counter-ions that a name gives are not always drawn.
# B1: apo-NGAL: NGAL cloned in BL-21 bacteria; does not contain enterochelin (siderophore free) (protein, UniProt P80188 21-198, looked up)
# Neutrophil …: QDSTSDLIPAPPLSKVPLQQNFQDNQFQGKWYVVGLAGNAILREDKDPQKMYATIYELKEDKSYNVTSVLFRKKKCDYWIRTFVPGCQPGEFTLGNIKSYPGLTSYLVRVVSTNYNQHAMVFFKKVSQNREYFKITLYGRTKELTSELKENFIRFSKSLGLPENHIVFPVPIDQCIDG
# modifications: siderophore-free
# B2: apo-NGAL:Sid:Ga: gallium-loaded enterochelin-NGAL complex (protein, UniProt P80188 21-198, looked up)
# Neutrophil …: B1 Neutrophil …
# modifications: enterochelin loaded with gallium
# notes: gallium-loaded enterochelin-NGAL complex
# B3: apo-NGAL:Sid: BL-21-cloned NGAL reconstituted with iron-free enterochelin (protein, UniProt P80188 21-198, looked up)
# Neutrophil …: B1 Neutrophil …
# modifications: complexed with iron-free enterochelin
# notes: BL-21-cloned NGAL reconstituted with iron-free enterochelin
# B4: ^55Fe:Sid:NGAL: iron-free enterochelin-NGAL incubated with ^55Fe at 1:1 stoichiometry (protein, UniProt P80188 21-198, looked up)
# Neutrophil …: B1 Neutrophil …
# modifications: enterochelin loaded with 55Fe
# notes: iron-free enterochelin-NGAL incubated with ^55Fe at 1:1 stoichiometry
# B5: Alexa-568 NGAL: NGAL coupled to Alexa-568 fluorescent dye (conjugate, UniProt P11672 21-200, looked up)
# Neutrophil …: QDSTQNLIPAPSLLTVPLQPDFRSDQFRGRWYVVGLAGNAVQKKTEGSFTMYSTIYELQENNSYNVTSILVRDQDQGCRYWIRTFVPSSRAGQFTLGNMHRYPQVQSYNVQVATTDYNQFAMVFFRKTSENKQYFKITLYGRTKELSPELKERFTRFAKSLGLKDDNIIFSVPTDQCIDN
# modifications: Alexa-568 dye
# notes: NGAL coupled to Alexa-568 fluorescent dye
# B6: holo-NGAL: NGAL cloned in XL-1Blue bacteria; contains enterochelin and is iron-loaded (protein, UniProt P11672 21-200, looked up)
# Neutrophil …: B5 Neutrophil …
# modifications: enterochelin, iron-loaded
# notes: NGAL cloned in XL-1Blue bacteria; contains enterochelin and is iron-loaded
# B7: [^125I]-NGAL: NGAL labelled with ^125I using Iodobeads (protein, UniProt P11672 21-200, looked up)
# Neutrophil …: B5 Neutrophil …
# modifications: 125I label
# notes: NGAL labelled with ^125I using Iodobeads
# B8: apo-NGAL:Sid:Fe: BL-21-cloned NGAL reconstituted with iron-saturated enterochelin (protein, UniProt P11672 21-200, looked up)
# Neutrophil …: B5 Neutrophil …
# modifications: iron-saturated enterochelin
# notes: BL-21-cloned NGAL reconstituted with iron-saturated enterochelin
# Key:
# [1] = system: mouse model of ATN or ischemia/reperfusion injury; assay: Mouse model of ATN (30 min clamp, contralateral nephrectomy): plasma creatinine; type: in vivo, mice; conditions: for protection against ATN (creatinine, FIG. 17A): mice, 30 minutes of ischemia, 10 μg protein or single dose, 15 min prior to ischemia
# Description: Male C57BL/6 mice (20-25 gr; Charles River) were anesthetized with intraperitoneal pentobarbital (50 mg/kg) and placed on a heating pad under a warming light to maintain 37© core body temperature. Kidneys were exposed through an abdominal section and the right kidney was either removed or its vascular pedicle and ureter ligated. The vascular pedicle of the left kidney or both kidneys was clamped by a microaneurysm clip (Kent Scientific) for 30 minutes after right nephrectomy. This period of ischemia generated reproducible renal injury but minimized mortality. During the procedure, PBS (0.5 ml) was used to dampen the peritoneum. The animal was closed with 5-0 Nylon. Saline, NGAL, retinol-loaded retinol binding protein (RBP), enterochelin, or desferroxamine mesylate (DFO) were injected into the peritoneum or subcutaneously 15 min. prior to ischemia or 1-2 hr after reperfusion.
# After 6 or 24 hr of reperfusion, heparinized plasma, urine and kidney samples were obtained to measure NGAL (polyclonal 1:500), Heme oxygenase-1 (Stressgen, 1:2000), E-cadherin (BD Transduction Labs, 1:2000), N-cadherin (BD Transduction Labs, 1:3000) and GAPDH (Chemicon International, 1:3000) using immunoblots. Plasma was also used for creatinine and blood urea nitrogen colorimetric assays. Sagittal sections of the kidney were fixed in 4% formalin, or were snap frozen for mRNA and protein analysis. Paraffin-embedded sections (5 μm) were stained with hematoxylin-eosin or by an in situ kit (Fluorescein-TUNEL, Roche) for apoptotic nuclei or for total nuclei (Toprol, Molecular Probes). For cell proliferation analysis, BrdU was injected into the peritoneum 1 hour before sacrifice, and cryostat sections were stained with anti-BrdU (Roche) according to the manufacturer.
# [2] = Cofactor-dependent ^55Fe binding to NGAL (10 kDa filter retention); conditions: for inhibition of ^55Fe capture by apo-NGAL+urine: competitor: 1000-fold unlabeled iron citrate or 50-fold iron-saturated enterochelin; for retention of ^55Fe: washed on 10 kDa filter
# Description: The urine fraction was obtained by passing fresh urine sequentially through 10 kDa and 3 kDa membranes (YM-10 and YM-3, Amicon). The mixture was then washed three times on 10 kDa membrane (YM-10, Amicon). Iron-free enterochelin-loaded NGAL (rather than NGAL without siderophore) served as a positive control for iron capture. Ferric citrate (1 mM) or iron-loaded enterochelin (Sid:Fe, 50 μM) were used as competitors of ^55Fe binding.
# [3] = Distribution and radioautography of ^55Fe after ^55Fe:Sid:NGAL injection; type: in vivo, mice; conditions: for Silver Grains (% Total): kidney radioautography; for ^55Fe recovered: one hour after 10 μg intraperitoneal
# Text: (§1) Recombinant human and mouse GST-NGAL were expressed in BL21 or XL1-Blue strains of E. coli (Stratagene) with additional ferric sulfate (50 Micro Molar, Sigma-Aldrich Co.). NGAL was isolated using Glutathione Sepharose 4B beads (Amersham Biosciences), eluted by thrombin cleavage (Sigma-Aldrich Co.; St. Louis, Mo.) and then further purified by gel filtration (Superdex75, SMART system, Amersham Biosciences) and examined by Coomassie gels (Biorad). BL-21 derived NGAL was loaded with iron free or iron saturated enterochelin, a siderophore (EMC Microcollections) using a 5 fold molar excess. Unbound siderophore (0.7 KD) was removed by washing (Microcon YM-10) with PBS. To produce ^55Fe or gallium (Ga) loaded NGAL we incubated the iron-free enterochelin NGAL complex with equimolar ^55Fe (18mCi) or Ga in NaCl (150 mM) Hepes (20 mM; pH 7.4) and the complex was washed 3 times (10K filter). Iodobeads (Pierce) were used to label NGAL with ^125I and unincorporated ^125I was removed by gel filtration (PD-10 column) followed by extensive dialysis (7 kDa cut off membrane, Pierce) against PBS. Alexa-568 and fluorescein isothiocyanate (Molecular Probes) was coupled to NGAL, according to the manufacturer, and then extensively dialyzed. Protein concentration was determined by Coomassie gels in comparison with bovine serum albumin standard.
# (§2) To detect delivery of NGAL to the kidney rNGAL (10 or 100 μg), Alexa 568-NGAL (100 μg), ^125I-NGAL ([…], 2×10^6 cpm), or ^55Fe loaded enterochelin-NGAL (10 μg, 1×10^6 cpm) was injected into the peritoneum and blood, urine, kidney and liver samples were obtained. NGAL was detected by immunoblot. Alexa-568 NGAL was detected by confocal microscopy (LSM Meta Detector) and NGAL mediated iron trafficking was detected by scintillation counter and by light microscopic radioautography of Epon embedded kidneys. Slides were exposed to emulsion (Polyscience) for 1 week and then developed with Microdol and counterstained with Toluidine blue. To detect lysosomes in the proximal tubule, mice were injected with Fluorescein Dextran (46 kD; 0.5 mg; Sigma) 24 hours before Alexa 568 NGAL injections. LAMP1 (Santa Cruz) was detected in cryostat sections of 4% paraformaldehyde fixed kidneys.
# [4] = NGAL trafficking after intraperitoneal or subcutaneous injection; type: in vivo, mice
# Text: as §1, §2
molecule,measurement,setting,value
"CC(=O)N(O)CCCCCNC(=O)CCC(=O)N(O)CCCCCNC(=O)CCC(=O)N(O)CCCCCN [DFO, desferrioxamine mesylate, reference compound]","protection against ATN (creatinine, FIG. 17A)",[1],failed to protect against ATN; also recorded: ineffective
"Ferric citrate [iron citrate, reference compound]",inhibition of ^55Fe capture by apo-NGAL+urine,[2],inhibited
same,inhibition of ^55Fe capture by apo-NGAL+urine,[2]; listed as iron-citrate,blocked
B1,"protection against ATN (creatinine, FIG. 17A)",[1],minimally active
same,"protection against ATN (creatinine, FIG. 17A)",[1]; listed as apo-Ngal,reduced level of protection
same,retention of ^55Fe,[2]; in buffer,failed to trap ^55Fe and not
same,retention of ^55Fe,"[2]; with mouse urine fraction (<3,000 Da)",retains ^55Fe
B2,creatinine,[1]; gallium complex 15 minutes prior to ischemia,3.17±0.1
same,"protection against ATN (creatinine, FIG. 17A)",[1],ineffective
same,"protection against ATN (creatinine, FIG. 17A)",[1]; listed as apo-Ngal:Sid:Ga,not protected
B3,"protection against ATN (creatinine, FIG. 17A)",[1],protective effect
same,"protection against ATN (creatinine, FIG. 17A)",[1]; listed as apo-Ngal:Sid,enhanced the protection of the kidney and blunted the rise in serum creatinine
same,retention of ^55Fe,[2]; in buffer,retained
B4,Relative SA (% grains/% point count),[3]; Apical MB,2.21
same,Relative SA (% grains/% point count),[3]; Basal MB,0.59
same,Relative SA (% grains/% point count),[3]; Cytosol,1
same,Relative SA (% grains/% point count),[3]; Glomerular Tuft,0.11
same,Relative SA (% grains/% point count),[3]; Interstitium,0.3
same,Relative SA (% grains/% point count),[3]; Lumen,1.43
same,Relative SA (% grains/% point count),[3]; Nucleus,0.56
same,Silver Grains (% Total),[3]; Apical MB,12.91 % Total
same,Silver Grains (% Total),[3]; Basal MB,3.81 % Total
same,Silver Grains (% Total),[3]; Cytosol,48.98 % Total
same,Silver Grains (% Total),[3]; Glomerular Tuft,0.13 % Total
same,Silver Grains (% Total),[3]; Interstitium,3.71 % Total
same,Silver Grains (% Total),[3]; Lumen,26.46 % Total
same,Silver Grains (% Total),[3]; Nucleus,4.02 % Total
same,^55Fe recovered,[3]; kidney,55%
same,^55Fe recovered,[3]; liver,2.4%
same,^55Fe recovered,[3]; plasma,4.3%
same,^55Fe recovered,[3]; spleen,0.2%
same,^55Fe recovered,[3]; urine,0.6%
B5,localization of fluorescent NGAL in kidney,[4]; by one hour after injection,localized to large vesicles in the subapical domain of the cortical proximal tubule
same,NGAL vesicles also containing dextran (lysosomes),"[4]; one hour after injecting, fluorescein-dextran the day before",33%
B6,"protection against ATN (creatinine, FIG. 17A)",[1],rescues renal function
same,"protection against ATN (creatinine, FIG. 17A)",[1]; listed as holo-Ngal,protected the kidney
B7,"TCA precipitable fraction, kidney-localized protein",[4]; kidney,70%
same,kidney versus liver content per mg protein,[4]; one hour time-point,13 fold
same,TCA precipitable fraction,[4]; plasma,35%
same,TCA precipitable fraction,[4]; urine,20%
B8,"protection against ATN (creatinine, FIG. 17A)",[1],protective effect
same,"protection against ATN (creatinine, FIG. 17A)",[1]; listed as apo-Ngal:Sid:Fe,enhanced the protection of the kidney and blunted the rise in serum creatinine
same,retention of ^55Fe,[2]; in buffer,not
